Laboratory results published in patent US12312397B2, “Anti-O2 antibodies and uses thereof” (priority 2016, dated 2025).
Where a chain is given by its changes, count along the chain named.

B1: KPS44: Class III anti-O2 antigen human mAb; VH SEQ ID NO: 116, VL SEQ ID NO: 117 (antibody, V domains shown)
VH: EVHLVESGGGLVKPGGSLRLSCAASGFTFKNAWMSWIRQAPGKGLEWVGRVKSEVDGGTIDYGVPVRGRFTISRDDSQGTLSLEMNSLKDDDTGVYYCRAFWSGFPTGYWGQGALVSVSS
VL: QSVLTQPPSLSAAPGQTITIACSGTSSNIGSDSVSWFQQFPGTAPRVLIYENNKRPSGISDRFSGSKSGTSVTLGITGLQTGDEADYYCATWDSSLSAYVFGSGTKVTVL
modifications: Description of Artificial Sequence: SyntheticKPS44/KPS44-G1 VH polypeptide; Description of Artificial Sequence: SyntheticKPS44 VL polypeptide
B2: KPS44v2017: sequence-optimized KPS44, Class III; VH SEQ ID NO: 202, VL SEQ ID NO: 203 (antibody, V domains shown)
VH: B1 VH with W102F
VL: B1 VL with D32N, S33Y, W92F
modifications: Description of Artificial Sequence: SyntheticKPS44-v2017/KPS44-G2/KPS44-G3 VH polypeptide; Description of Artificial Sequence: SyntheticKPS44-v2017/KPS44-G1 VL polypeptide
B3: KPL26: Class II anti-O2 antigen human mAb; VH SEQ ID NO: 89, VL SEQ ID NO: 90 (antibody, V domains shown)
VH: EVQLVESGGGLVQSGGSLRLSCETSGFIFGSSWMTWVRQAPGKGLEWVATINPDGSATSYEDSVRGRFAVSRDNAKNSVYLQMNSLRAEDTAVYFCTRNKAYNALDYWGQGTLVTVSS
VL: QSALTQPPSASGSPGQSVTLSCTGTSSDVGGNNYVSWYQQHPGKAPKLIIYEVSKRPSGVPNRFSGSKSGNTASLTVSGLQAEDEADYYCSSFGGSKMFGGGTKLTVL
modifications: Description of Artificial Sequence: SyntheticKPL26 VH polypeptide; Description of Artificial Sequence: SyntheticKPL26 VL polypeptide

How the values were obtained:
[1] = system: K. pneumoniae O2; assay: Mouse protection models (O2), Table 7 summary; type: in vivo, Klebsiella pneumoniae; set-up: key: +++: Strongly positive activity; +: Positive activity; +/−: Somewhat positive depending upon the test conditions; settings: mouse pneumonia models
Procedure: As described in more detail in below, anti-O2 LPS mAbs were tested for: 1) binding to O1 and O2 LPS (see Example 5); 2) LPS neutralization (LPS-Neut) against O1 and O2 LPS (see Example 7); 3) OPK against capsule mutant strain 43816ΔcpsB lux (O1) and 8570ΔcpsB lux (O2) (see Example 8); and 4) protective activity in pneumonia models (see Example 9). O2 LPS mAbs were subsequently divided into three classes based on their in vitro activities. Class I mAbs were characterized as Binding (O1+O2+)/OPK (O1−O2+); Class 2 mAbs were characterized as Binding (O1+O2+)/OPK (O1+O2+); and Class III mAbs were characterized as Binding (O1±O2+)/OPK (O1−O2+).
(§1) C57/BL6 mice were obtained from Jackson Laboratories and maintained in a special pathogen-free facility. All animal experiments were conducted in accordance with Institutional Animal Care and Use Committee (IACUC) protocol and guidance. K. pneumoniae strains were grown on agar plates overnight and diluted in saline at proper concentration. The inoculum titer was determined by plating a serial dilution of bacteria onto agar plates prior to and post challenge. In acute pneumonia models, C57/BL6 mice were inoculated with 1e4 to 2e8 colony-forming units (CFU) of K. pneumoniae clinical isolates in 50 μl saline intranasally. Anti-K pneumoniae monoclonal antibodies (mAbs) and human IgG1 control antibodies were given 1-24 hour post bacterial challenge (therapeutic dosing). Mouse survival was monitored daily until up to day 8. Survival data of representative experiments were plotted in Graphpad Prism software.
(§2) Mice were challenged with 2e8 CFU of Klebsiella pneumoniae Carbanpenemase (KPC) strain Kp961842_O2 or with 3e8 CFU of KPC strain Kp977778_O2, followed by the administration of anti-O2 mAbs. When administered at a concentration of 2 mg/kg 1 hour post bacterial infection, Class III anti-O2 LPS mAbs KPN42, KPN179-IgG1, and KPS44v2017 protected mice from lethal bacterial challenge with the multi-drug resistant KPC strains Kp961842_O2 (FIG. 6, left panel, and FIG. 10) and Kp977778_O2 (FIG. 6B, right panel).

[2] = system: O2 LPS activation of NF-κB in RAW264.7-lux cells; assay: LPS neutralization assay (NF-κB luciferase, RAW264.7-lux), O2 LPS; type: cell-based, murine; set-up: key to LPS Neut O2: +++: Strongly positive activity; +: Positive activity; +/−: Somewhat positive depending upon the test conditions; settings: for LPS Neut O2: Table 7 summary; for neutralizing activity against O2 LPS (NF-κB activation): human IgG1 format
Procedure: (§3) Activation of TLR4 receptors by bacterial LPS leads to downstream activation of the NF-κB transcriptional regulator. A decrease in induction of NF-κB-responsive luciferase activity was used to quantify LPS neutralization activity by LPS mAbs. A murine RAW264.7 macrophage cell line was engineered to carry a firefly luciferase reporter gene under the control of an NF-κB-responsive promoter (RAW264.7-lux). Serially diluted antibody stocks were mixed with LPS in a 1:1 ratio and incubated at 4° C. for 1 hr. Antibody/LPS mixtures were then diluted 1:10 into assay plates containing pre-seeded RAW264.7-lux cells (4e5 cells/well), which were then placed at 37° C. with 5% CO2 for 2.5 hours. Following incubations, Steady Glo solution (Promega) was added to each well and incubated for another 20 min protected from light. The relative light units (RLUs) were measured using a multi-mode microplate reader (Synergy 2, Biotek or envision multilabel plate reader, Perkin Elmer). The percentage of inhibition was determined by comparing RLU derived from assays with no antibodies to RLU derived from assays with anti-K. pneumoniae mAbs and assays performed with a negative control mAb. […] All mAbs were tested in human IgG1 format.

[3] = system: O1 LPS activation of NF-κB in RAW264.7-lux cells; assay: LPS neutralization assay (NF-κB luciferase, RAW264.7-lux), O1 LPS; type: cell-based, murine; set-up: key to LPS Neut O1: +++: Strongly positive activity; +: Positive activity; +/−: Somewhat positive depending upon the test conditions; settings: for neutralizing activity against O1 LPS (NF-κB activation): human IgG1 format
Procedure: as §3

[4] = system: K. pneumoniae 8570ΔcpsBLux (O2); assay: Opsonophagocytic killing (OPK) assay, O2 capsule mutant; type: cell-based, Klebsiella pneumoniae; set-up: key to D Capsule OPK O2: +++: Strongly positive activity; +: Positive activity; +/−: Somewhat positive depending upon the test conditions; settings: for D Capsule OPK O2: capsule mutant strain 8570ΔcpsB lux (O2); for OPK activity against O2 capsule mutant: secondary screening
Procedure: (§4) OPK activity of anti-O2 LPS mAbs was tested against O1 and O2 strains. Briefly, log phase cultures of luminescent K. pneumoniae strains 8570ΔcpsBLux (O2) and 43816ΔcpsBLux (O1) were diluted to ˜2×10^6 cells/ml. K. pneumoniae cells, 5e5/well dimethylformamide (DMF) differentiated HL-60 cells, cleared baby rabbit serum (1:10 Cedarlane), and a series dilution of antibodies (2 ng-2.5 μg/mL) were mixed in 96-well plates and incubated at 37° C. for two hours with shaking (250 rpm). The relative light units (RLUs) were then measured using a multi-mode microplate reader (Synergy 2, Biotek or envision multilabel plate reader, Perkin Elmer). The percentage of killing was determined by comparing RLU derived from assays with no antibodies to RLU derived from assays with anti-K. pneumoniae mAbs and assays performed with a negative control mAb. Positive killing was determined where the percentage of killing is above 40%.

[5] = system: KPC strain Kp977778_O2; assay: Lethal pneumonia model, KPC strain Kp977778_O2; type: in vivo, Klebsiella pneumoniae; settings: C57/BL6 mice, 3e8 CFU; mAb 2 mg/kg 1 hour post infection; survival
Procedure: as §1, §2

[6] = system: KPC strain Kp961842_O2; assay: Lethal pneumonia model, KPC strain Kp961842_O2; type: in vivo, Klebsiella pneumoniae; settings: C57/BL6 mice, 2e8 CFU; mAb 2 mg/kg 1 hour post infection; survival
Procedure: as §1, §2

[7] = system: K. pneumoniae 43816ΔcpsBLux (O1); assay: Opsonophagocytic killing (OPK) assay, O1 capsule mutant; type: cell-based, Klebsiella pneumoniae; set-up: key to D Capsule OPK O1: +++: Strongly positive activity; +: Positive activity; +/−: Somewhat positive depending upon the test conditions
Procedure: as §4

[8] = system: K. pneumoniae O1; assay: Lethal O1 pneumonia model; type: in vivo, Klebsiella pneumoniae; set-up: key to Mouse protection models (O1): +++: Strongly positive activity; +: Positive activity; +/−: Somewhat positive depending upon the test conditions
Procedure: as §1
Mice were challenged with 2e8 CFU of Klebsiella pneumoniae Carbanpenemase (KPC) strain Kp961842_O2 or with 3e8 CFU of KPC strain Kp977778_O2, followed by the administration of anti-O2 mAbs. […]

[9] = system: O1 LPS; assay: ELISA binding to O1 LPS; set-up: species or system Klebsiella pneumoniae; settings: secondary screening
Procedure: (§5) The coated plates were incubated with cell culture supernatants from polyclonally stimulated lymphocytes (AMVBRA) or from monoclonal immortalized B cells (donor interrogations) containing fully human antibodies or with diluted plasma samples (PBMC donor selections) for 1 hour at room temperature. The plates were then washed with PBS containing 0.1% Tween-20 (PBS-T). Secondary antibody was added; either Alkaline Phosphatase-conjugated Goat Anti-Human IgG-AP (Southern Biotech, 2040-04, 1:1000 in PBS-B) or Peroxidase AffiniPure F(ab′)2 Fragment Goat Anti-Human IgG, Fc Fragment Specific (Jackson ImmunoResearch #309 036 098, 1:5000 in PBS-B) were used. Secondary antibodies were typically incubated for 1 h. Plates were washed three times with PBS-T, and P-NitroPhenyl Phosphate (pNPP, Sigma-Aldrich, cat #N2765-100TAB) or Sureblue (KPL, 53-00-03) substrates were added and incubated for 10 min or until the development of a colorimetric reaction. In the case of the HRP substrate Sureblue, the reaction was stopped by adding an equal volume of 0.2N HCl. The absorbance at 405 nm (pNPP) or 450 nm (Sureblue) was measured by a microplate reader (Biotek, Elx808).
(§6) The coated plates were incubated with serial dilutions of the monoclonal antibodies for 1 hour at room temperature. The plates were then washed with PBS containing 0.1% Tween-20 (PBS-T). Alkaline Phosphatase-conjugated Goat Anti-Human IgG (Southern Biotech, 2040-04, 1:1000 in PBS-B) was added. The secondary antibody reactions were incubated for 1 h. Plates were washed three times with PBS-T, and P-NitroPhenyl Phosphate (pNPP, Sigma-Aldrich, cat #N2765-100TAB) substrate was added and incubated for 30 min or until the development of a colorimetric reaction. The absorbance at 405 nm was measured by a microplate reader (Biotek, Elx808). The data was plotted with Graphpad Prism software. Representative mAbs from each class were tested for their binding to O1 LPS (FIG. 2A) and O2 LPS (FIG. 2B), and EC50 values were obtained (FIG. 2C). The majority of the anti-O2 LPS mAbs bound to both O1 and O2 LPS by ELISA. […] None of these LPS mAbs bound to the 03, 04, 05, 07, or 012 LPS serotypes (see e.g., FIG. 1A).

[10] = system: O2 LPS; assay: ELISA binding to O2 LPS; set-up: species or system Klebsiella pneumoniae; settings: secondary screening, ELISA
Procedure: as §5, §6

Molecule	Mouse protection models (O2) [1]	LPS Neut O2 [2]	neutralizing activity against O2 LPS (NF-κB activation) [2]	neutralizing activity against O1 LPS (NF-κB activation) [3]	D Capsule OPK O2 [4]	OPK activity against O2 capsule mutant [4]	protection from lethal bacterial challenge, Kp977778_O2 [5]	protection from lethal bacterial challenge, Kp961842_O2 [6]	neutralization of LPS-O2 ([2]; secondary screening)	OPK activity against O1 strain ([7]; 43816ΔcpsBLux (O1), positive killing above 40%)	D Capsule OPK O1 ([7]; capsule mutant strain 43816ΔcpsB lux (O1))	OPK activity against O1 capsule mutant ([7]; secondary screening)	protection in lethal O1 pneumonia model ([8]; mice, survival)	Mouse protection models (O1) ([8]; mouse pneumonia model, O1)	LPS Neut O1 ([3]; Table 7 summary)	neutralization of LPS-O1 ([3]; secondary screening)	binding to LPS-O1 [9]	binding to LPS-O2 [10]	OPK activity against O2 strain ([4]; 8570ΔcpsBLux (O2), positive killing above 40%)
B1	+++	+/−	moderate neutralizing activity	no activity	+++	strong OPK activity	–	–	–	–	–	–	–	–	–	–	–	–	–
B2	+++	+/−	–	–	+++	–	protected	protected	–	–	–	–	–	–	–	–	–	–	–
B3	–	+	blocked	blocked	+	showed OPK activity	–	did not show protection	neutralize	induced OPK activity	+	showed OPK activity	moderate protection	+	+	neutralize	confirmed to bind	confirmed to bind	induced OPK activity
